T1: Dcc1 dWH3 (Saccharomyces cerevisiae, UniProt P25559 90-318, del319-380)
T1 sequence: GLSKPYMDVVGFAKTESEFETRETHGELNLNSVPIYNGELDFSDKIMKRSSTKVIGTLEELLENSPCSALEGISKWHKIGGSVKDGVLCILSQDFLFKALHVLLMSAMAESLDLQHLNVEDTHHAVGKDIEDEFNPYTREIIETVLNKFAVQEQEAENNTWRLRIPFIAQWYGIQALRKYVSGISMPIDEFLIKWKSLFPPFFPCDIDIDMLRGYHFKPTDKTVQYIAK

T2: Dcc1 triple mutant (Saccharomyces cerevisiae, UniProt P25559 90-380, K364A;R367A;R380A)
T2 sequence: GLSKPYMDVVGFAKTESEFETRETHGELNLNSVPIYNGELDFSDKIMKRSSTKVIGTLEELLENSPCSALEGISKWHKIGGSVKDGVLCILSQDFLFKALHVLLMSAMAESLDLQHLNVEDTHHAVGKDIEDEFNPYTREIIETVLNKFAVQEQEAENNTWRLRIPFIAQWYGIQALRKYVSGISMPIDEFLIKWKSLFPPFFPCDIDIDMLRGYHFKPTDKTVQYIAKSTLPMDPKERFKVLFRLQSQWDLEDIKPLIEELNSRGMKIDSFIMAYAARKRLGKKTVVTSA


Key:
Dcc1 dWH3 = molecular target: T1, Dcc1 dWH3; assay: EMSA; also none at reduced DNA, overexposed gel; EMSA, 6% native gel in 0.5x TBE, 4 C, DNA 1 uM unless stated; binding buffer, salt and pH not stated (protein storage 10 mM Tris pH 7.5, 150 mM NaCl, 0.5 mM TCEP for the complex); settings: protein: recombinant; label: 5' 6-FAM on sense strand
Dcc1 triple mutant = molecular target: T2, Dcc1 triple mutant; assay: EMSA; EMSA, 6% native gel in 0.5x TBE, 4 C, DNA 1 uM unless stated; binding buffer, salt and pH not stated (protein storage 10 mM Tris pH 7.5, 150 mM NaCl, 0.5 mM TCEP for the complex); settings: protein: recombinant

Row | Binder | binding result (Dcc1 dWH3) | binding result (Dcc1 triple mutant; label: 5' 6-FAM on sense strand) | binding result (Dcc1 triple mutant; label: 5' 6-FAM)
1 | 22-mer dsDNA (dsDNA) DNA 1: TCTCCACAGGAAACGGAGGGGT DNA 2: ACCCCTCCGTTTCCTGTGGAGA | no binding | no binding | –
2 | TTTTTTTTTTTTTTTTTTTTTTTTT (ssDNA) [25-mer oligo d(T)] | – | – | no binding

— article PMC5376975, “Structural studies of RFCC tf18 reveal a novel chromatin recruitment role for Dcc1”
